Experimental data from paper PMC9192595, “Dynamic interaction of BRCA2 with telomeric G-quadruplexes underlies telomere replication homeostasis”.

Legend:
BRCA2OB [1] = target: T1, BRCA2OB (human, UniProt P51587 2665-3197); assay: EMSA; 100 mM KCl; EMSA: 10 nM probe, 50 mM Tris-HCl pH 7.5, 100 mM KCl, 2 mM b-ME, 10% glycerol, probe pre-incubated 37 C, gel 4 C (RAD51: +1 mM MgCl2, 2 mM ATP); smFRET: 50 mM Tris-HCl pH 7.9, 100 mM KCl, 20 mM NaCl, 1 mM DTT, 0.1 mg/ml BSA, 9% glycerol, 37 C; settings: protein: recombinant; tags: N-MBP, C-6xHis; label: 5' 32P; intramolecular G4
T1 sequence: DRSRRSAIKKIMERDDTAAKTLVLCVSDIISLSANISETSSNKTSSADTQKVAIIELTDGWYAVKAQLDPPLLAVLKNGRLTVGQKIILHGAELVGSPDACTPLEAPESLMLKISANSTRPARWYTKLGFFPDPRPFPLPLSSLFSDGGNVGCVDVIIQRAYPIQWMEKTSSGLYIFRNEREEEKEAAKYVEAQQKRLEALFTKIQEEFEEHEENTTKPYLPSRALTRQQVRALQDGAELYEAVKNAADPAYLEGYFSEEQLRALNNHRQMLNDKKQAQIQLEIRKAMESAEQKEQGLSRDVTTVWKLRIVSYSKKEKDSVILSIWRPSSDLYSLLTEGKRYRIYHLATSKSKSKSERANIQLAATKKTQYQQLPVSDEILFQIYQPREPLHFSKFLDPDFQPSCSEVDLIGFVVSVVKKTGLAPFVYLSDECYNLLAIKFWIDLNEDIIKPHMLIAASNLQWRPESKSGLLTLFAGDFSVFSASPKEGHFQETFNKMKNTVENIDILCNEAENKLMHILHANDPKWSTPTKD

BRCA2OB [2] = target: T1, BRCA2OB; assay: EMSA; 100 mM KCl; rough estimate, max protein 1 uM; EMSA: 10 nM probe, 50 mM Tris-HCl pH 7.5, 100 mM KCl, 2 mM b-ME, 10% glycerol, probe pre-incubated 37 C, gel 4 C (RAD51: +1 mM MgCl2, 2 mM ATP); smFRET: 50 mM Tris-HCl pH 7.9, 100 mM KCl, 20 mM NaCl, 1 mM DTT, 0.1 mg/ml BSA, 9% glycerol, 37 C; settings: protein: recombinant; tags: N-MBP, C-6xHis; label: 5' 32P; intramolecular G4 (dynamic)
POT1OB = target: T2, POT1OB (human, UniProt Q9NUX5 10-278); assay: EMSA; 100 mM KCl; EMSA: 10 nM probe, 50 mM Tris-HCl pH 7.5, 100 mM KCl, 2 mM b-ME, 10% glycerol, probe pre-incubated 37 C, gel 4 C (RAD51: +1 mM MgCl2, 2 mM ATP); smFRET: 50 mM Tris-HCl pH 7.9, 100 mM KCl, 20 mM NaCl, 1 mM DTT, 0.1 mg/ml BSA, 9% glycerol, 37 C; settings: protein: recombinant, tags: N-MBP, C-6xHis, label: 5' 32P
T2 sequence: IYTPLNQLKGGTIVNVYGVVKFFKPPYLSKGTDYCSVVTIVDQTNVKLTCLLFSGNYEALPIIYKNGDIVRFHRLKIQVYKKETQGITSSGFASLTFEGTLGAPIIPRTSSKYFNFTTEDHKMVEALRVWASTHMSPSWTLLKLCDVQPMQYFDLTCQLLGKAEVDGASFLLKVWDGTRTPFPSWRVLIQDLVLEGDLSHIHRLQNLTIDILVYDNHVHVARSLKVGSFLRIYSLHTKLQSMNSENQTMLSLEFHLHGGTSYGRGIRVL

RAD51 [3] = target: T3, RAD51 (human, UniProt Q06609 1-339); assay: EMSA; 250 nM RAD51, 2 mM ATP, no BRCA2OB; EMSA: 10 nM probe, 50 mM Tris-HCl pH 7.5, 100 mM KCl, 2 mM b-ME, 10% glycerol, probe pre-incubated 37 C, gel 4 C (RAD51: +1 mM MgCl2, 2 mM ATP); smFRET: 50 mM Tris-HCl pH 7.9, 100 mM KCl, 20 mM NaCl, 1 mM DTT, 0.1 mg/ml BSA, 9% glycerol, 37 C; settings: protein: commercial; label: 5' 32P; intramolecular G4 (dynamic)
RAD51 [4] = target: T3, RAD51; assay: EMSA; ATP; facilitated by BRCA2OB, about constant with dose; EMSA: 10 nM probe, 50 mM Tris-HCl pH 7.5, 100 mM KCl, 2 mM b-ME, 10% glycerol, probe pre-incubated 37 C, gel 4 C (RAD51: +1 mM MgCl2, 2 mM ATP); smFRET: 50 mM Tris-HCl pH 7.9, 100 mM KCl, 20 mM NaCl, 1 mM DTT, 0.1 mg/ml BSA, 9% glycerol, 37 C; settings: protein: commercial; label: 5' 32P; intramolecular G4
BRCA2OB [5] = target: T1, BRCA2OB; assay: EMSA; 100 mM KCl; EMSA: 10 nM probe, 50 mM Tris-HCl pH 7.5, 100 mM KCl, 2 mM b-ME, 10% glycerol, probe pre-incubated 37 C, gel 4 C (RAD51: +1 mM MgCl2, 2 mM ATP); smFRET: 50 mM Tris-HCl pH 7.9, 100 mM KCl, 20 mM NaCl, 1 mM DTT, 0.1 mg/ml BSA, 9% glycerol, 37 C; settings: protein: recombinant; tags: N-MBP, C-6xHis; label: 5' 32P; intramolecular G4; remark: listed apart in the source
BRCA2OB [6] = target: T1, BRCA2OB; assay: as above; settings: protein: recombinant; tags: N-MBP, C-6xHis; label: 5' 32P; intramolecular G4; remark: listed apart in the source
BRCA2OB [7] = target: T1, BRCA2OB; assay: as above; settings: protein: recombinant; tags: N-MBP, C-6xHis; label: 5' 32P; G-triplex / G3:G4

T3 sequence (Q06609 whole entry): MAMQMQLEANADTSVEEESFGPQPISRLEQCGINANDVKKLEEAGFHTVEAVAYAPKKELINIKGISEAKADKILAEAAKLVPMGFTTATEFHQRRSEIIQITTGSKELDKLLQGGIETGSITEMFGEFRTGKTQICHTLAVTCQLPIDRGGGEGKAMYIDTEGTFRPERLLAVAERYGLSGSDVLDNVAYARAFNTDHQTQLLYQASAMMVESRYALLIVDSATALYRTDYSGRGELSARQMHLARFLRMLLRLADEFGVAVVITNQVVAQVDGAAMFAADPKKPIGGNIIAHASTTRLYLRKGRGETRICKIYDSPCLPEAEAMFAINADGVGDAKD

Q: How did the binding signal (BRCA2OB [1]) turn out when GGTTTGGGTTGGGTTGGGTTGGGTTTG (structured_DNA) [TelG5TT] was run?
A: 13 fold vs TelG5

Q: For GGTTAGGGTTAGGGTTAGGGTTAGGGTTAG (structured_DNA) [TelG5], which Kd (BRCA2OB [2]) is on record?
A: 4400 nM

Q: Does GGTTAGGGTTAGGGTTAGGGTTAGGGTTAG (structured_DNA) [TelG5] bind (POT1OB; intramolecular G4 (dynamic))?
A: binds

Q: Does GGTTAGGGTTAGGGTTAGGGTTAGGGTTAG (structured_DNA) [TelG5] bind (RAD51 [3])?
A: binds

Q: What does the source list for GGTTTGGGTTTGGGTTTGGGTTTGGGTTTG (structured_DNA) [TelG5TTT]?
A: binding result (RAD51 [4]): binds; binding result (POT1OB; intramolecular G4): no binding; Kd (BRCA2OB [5]): 456 nM; binding signal (BRCA2OB [6]): ~9 fold vs TelG5

Q: For GGTTAGGGTTAGGGTTAGTGTTAGGGTTAG (structured_DNA) [TelG5-G3], which binding signal (BRCA2OB [7]) is on record?
A: 3 fold vs TelG5
